# Laboratory results published in PMC2628434.
# T1: LuxR (Vibrio harveyi, UniProt P21308 1-205)
# T1 sequence: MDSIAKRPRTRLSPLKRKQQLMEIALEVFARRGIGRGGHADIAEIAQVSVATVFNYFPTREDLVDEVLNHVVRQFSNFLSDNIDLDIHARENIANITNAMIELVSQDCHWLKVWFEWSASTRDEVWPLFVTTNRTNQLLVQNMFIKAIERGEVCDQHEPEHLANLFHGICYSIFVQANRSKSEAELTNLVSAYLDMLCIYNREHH
# B1: Consensus (dsDNA)
# DNA 1: ACTGATATTGATAAATTTATCAATAATGACT
# DNA 2: AGTCATTATTGATAAATTTATCAATATCAGT
# B2: qrr4 A17C (dsDNA)
# DNA 1: CATTTTTCTGATAAATGTATTCGTAGCAATG
# DNA 2: CATTGCTACGAATACATTTATCAGAAAAATG
# B3: qrr4 A6C A17C (dsDNA)
# DNA 1: CATTTTTCTGCTAAATGTATTCGTAGCAATG
# DNA 2: CATTGCTACGAATACATTTAGCAGAAAAATG
# B4: VP0057/8 (dsDNA)
# DNA 1: AACATTACTGATAAATTAGATATTTATGGCT
# DNA 2: AGCCATAAATATCTAATTTATCAGTAATGTT
# B5: VP0944/5 (dsDNA)
# DNA 1: TAGAGTTAGTATCAATTTAATCAATAAGATA
# DNA 2: TATCTTATTGATTAAATTGATACTAACTCTA
# B6: VPA0197/8 (dsDNA)
# DNA 1: TAAGGTAAATAATTATTTTAACAATAATTAA
# DNA 2: TTAATTATTGTTAAAATAATTATTTACCTTA
# B7: VPA0226/7 (dsDNA)
# DNA 1: ACCAAAATTGATAAAATGAATAATTAGATAT
# DNA 2: ATATCTAATTATTCATTTTATCAATTTTGGT
# B8: VPA0649 (dsDNA)
# DNA 1: ATTCCTTATTTACCAATTTATAAACTATGAA
# DNA 2: TTCATAGTTTATAAATTGGTAAATAAGGAAT
# B9: qrgB WT (dsDNA)
# DNA 1: TGTTTATATTGAGTTCACAATCAATACCGATCA
# DNA 2: TGATCGGTATTGATTGTGAACTCAATATAAACA
# B10: qrgB A2C (dsDNA)
# DNA 1: TGTTTATCTTGAGTTCACAATCAATACCGATCA
# DNA 2: TGATCGGTATTGATTGTGAACTCAAGATAAACA
# B11: qrgB A6C (dsDNA)
# DNA 1: TGTTTATATTGCGTTCACAATCAATACCGATCA
# DNA 2: TGATCGGTATTGATTGTGAACGCAATATAAACA
# B12: qrgB A17C (dsDNA)
# DNA 1: TGTTTATATTGAGTTCACAATCCATACCGATCA
# DNA 2: TGATCGGTATGGATTGTGAACTCAATATAAACA
# B13: qrgB A2C A17C (dsDNA)
# DNA 1: TGTTTATCTTGAGTTCACAATCCATACCGATCA
# DNA 2: TGATCGGTATGGATTGTGAACTCAAGATAAACA
# B14: qrr4 WT (dsDNA)
# DNA 1: CATTTTTCTGATAAATGTATTAGTAGCAATG
# DNA 2: CATTGCTACTAATACATTTATCAGAAAAATG
# B15: qrr4 A6C (dsDNA)
# DNA 1: CATTTTTCTGCTAAATGTATTAGTAGCAATG
# DNA 2: CATTGCTACTAATACATTTAGCAGAAAAATG
# B16: qrr4 T15C (dsDNA)
# DNA 1: CATTTTTCTGATAAATGTACTAGTAGCAATG
# DNA 2: CATTGCTACTAGTACATTTATCAGAAAAATG
# B17: Negative control (dsDNA)
# DNA 1: ACTGACTGACTGACTGACTGACTGACTGACT
# DNA 2: AGTCAGTCAGTCAGTCAGTCAGTCAGTCAGT
# Target: T1, LuxR
# Assay: fluorescence anisotropy
row,Binder,Kd [nM]
1,B1,24 ± 4
2,B2,38 ± 5
3,B3,112 ± 27
4,B4,47 ± 8
5,B5,30 ± 7
6,B6,68 ± 11
7,B7,73 ± 12
8,B8,30 ± 8
9,B9,27 ± 3
10,B10,27 ± 4
11,B11,44 ± 5
12,B12,43 ± 6
13,B13,242 ± 46
14,B14,35 ± 4
15,B15,68 ± 11
16,B16,27 ± 4

# Target: T1, LuxR
# Assay: fluorescence anisotropy
# Remark: another data set of the same source
row,Binder,Kd [nM]
1,B17,136 ± 63
